Source: paper doi:10.1101/2022.11.29.518402 (bioRxiv, 2022)

Legend:
[1] = target: T1, ALFA-EMC7(M214C), cysteine in helix 2 (H2) of EMC7 (human, UniProt Q9NPA0 24-242, M214C); test: cross-linking
T1 sequence: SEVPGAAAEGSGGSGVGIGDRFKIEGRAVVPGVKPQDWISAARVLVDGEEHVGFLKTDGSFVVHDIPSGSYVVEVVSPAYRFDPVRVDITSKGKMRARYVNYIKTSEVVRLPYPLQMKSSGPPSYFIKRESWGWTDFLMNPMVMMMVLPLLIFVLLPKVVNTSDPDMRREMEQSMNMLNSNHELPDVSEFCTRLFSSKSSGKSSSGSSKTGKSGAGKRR

[2] = target: T2, EMC3(T102C)-GFP, cysteine in loop 2 of EMC3 (human, UniProt Q9P0I2 1-261, T102C); test: cross-linking
T2 sequence: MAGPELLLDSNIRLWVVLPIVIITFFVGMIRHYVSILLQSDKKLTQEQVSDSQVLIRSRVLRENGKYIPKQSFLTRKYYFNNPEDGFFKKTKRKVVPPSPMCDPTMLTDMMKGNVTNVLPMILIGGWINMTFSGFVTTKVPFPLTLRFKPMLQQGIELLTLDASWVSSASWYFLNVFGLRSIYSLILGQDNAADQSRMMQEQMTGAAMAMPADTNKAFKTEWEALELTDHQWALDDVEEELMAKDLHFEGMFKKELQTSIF

B1: SQS(L401C): 3xFLAG-Sec61β(2-59, C39S)-SQS(378-end) with a cysteine at L401 in the TMD (other)
chain: PGPTPSGTNVGSSGRSPSKAVAARAAGSTVRQRKNASSGTRSAGRTTSAGTGGMWRFYSRSHYSPIYLSFVMLLAALSWQYCTTLSQVTEDYVQTGEH
modifications: 35S-methionine labelled
Which results are given for B1?
binding result [1]: binds; binding result [2]: binds
